Here are results for one molecule from patent US20080274096A1, “Fusion Proteins Having a Modulated Half-Life in Plasma” (ASTRAZENECA AB, priority 2005, published 2008).

Data set [1] has as its system amyloid β peptide1-40 (Aβ40). As to the kind of experiment: Degradation of Aβ1-40 in guinea pig plasma by neprilysin. Format: biochemical. The method, then: (§1) Degradation of amyloid β peptide1-40 (Aβ40) and amyloid β peptide1-42 (Aβ42) by neprilysin was investigated using heparinized plasma from male Dunkin Hartley guinea pigs, weighing 250-300 g (HBLidköping ka). Blood was withdrawn from anaesthetized guinea pigs by heart puncture. The blood were collected into prechilled heparin-plasma tubes and centrifuged for 10 min at 4° C. at 3000×g within 20 minutes of sampling. Plasma samples were transferred to pre-chilled polypropylene tubes and immediately frozen on dry ice and stored at −70° C. prior to use. The experiments were performed on a pool of plasma from 5-6 guinea pigs. […] A final concentration of 4.7 mM EDTA was added into the tubes before the amount of Aβ1-40 or Aβ1-42 was analyzed by using commercial ELISA kits obtained from Biosource (Aβ1-40) or Innogenetics (Aβ1-42).

For the next data set, the system named is Ab1-42. Particulars: purified Neprilysin; Howell et al., 1995; cited from earlier work.
A further data set has as its system amyloid β1-40 peptide. Kind of data set: Degradation of amyloid β1-40 peptide by soluble Neprilysin in a buffer system. The following applies: Neprilysin 1.8 μg/ml; Amyloid β1-40 peptide (1 nM); 3 hours incubation at 37° C. Format: biochemical. The method, then:
Following incubation, 50 μl of antibodies solution containing anti-Aβ40 (final concentration 0.125 μg/ml; Biosource) and Biotinylated 6E10 (final concentration 0.125 μg/ml; Signet) antibodies was added to each well. Plate was incubated at RT for 3 h. Following incubation, 50 μl of detection mixture of Dynabeads M280 (Dynal Biotech ASA) and secondary antibody Ru-GαR (final concentration 0.132 μg/ml) was added to all wells. Plate was incubated on a shaker at RT for 1 h and results were recorded on IGEN/Bio […]8 analyser. Amyloid β1-40 peptide degradation by Neprilysin was calculated as a percentage of Amyloid β1-40 peptide left after incubation in the presence of Neprilysin compared to the amyloid β1-40 peptide concentration in the absence of Neprilysin.

In data set [2] the test system is fluorogenic peptide substrate V-Mca-Arg-Pro-Gly-Phe-Ser-Ala-Phe-Lys(Dnp)-OH. Kind of data set: Neprilysin enzyme activity FRET assay. Format: biochemical. The following applies: purification with addition of 200 μM ZnCl2 versus without. The method, then:
Neprilysin is affinity purified directly from the culture supernatants. Soluble Neprilysin is purified using biotinylated anti-neprilysin antibody (R&D Systems) bound to […] sepharose (GE Healthcare). 14 μg biotinylated anti-neprilysin antibody (R&D systems) was added to 140 μl streptavidin sepharose slurry (GE Healthcare) and incubated during gentle mixing for 2 hours, in room temperature. The sepharose was washed twice and resuspended in 140 μl PBS. The sepharose slurry with bound anti-neprilysin antibody, was added to 10 ml culture supernatant and the sample was incubated for 5 hours at 4° C. After incubation, the sepharose was washed once with PBS and resuspended in 1200 μl 50 mM Tris-HCl, pH 7.5, 150 mM NaCl. […] The sepharose was pelleted and the concentration of purified protein in the supernatant was measured by absorbance at 280 nm. […] The Neprilysin enzymatic activity is determined in a fluorescence resonance energy transfer (FRET) assay. […] Following addition of all components to wells, plate was immediately placed into a fluorescent plate reader (Ascent) and signal was recorded for every minute for 20 minutes at the excitation 340 nm and emission 405 nm. The activity of enzyme was evaluated by calculating the velocity of reaction-Slope coefficient=Σ ΔRFU/Δt. […]

Another data set concerns amyloid β peptide. Kind of data set: Two-compartment membrane experiment, degradation of amyloid β peptide. Format: biochemical. Particulars: degradation in one compartment connected through a membrane. As to the method:
An experiment is performed to investigate the possibility to remove amyloid β peptide from one compartment by degradation in another compartment connected through a membrane. A similar experiment was conducted using an antibody as an amyloid β peptide agent. The experiment is described by DeMattos et al., (PNAS, 2001). By degrading the amyloid β peptide with neprilysin and/or NEP-Fc in one compartment the concentration of amyloid β peptide in the other compartment is decreased. Importantly, neprilysin or NEP-Fc cannot cross the membrane due to its high molecular weight (161.000 Da and 211.000 Da, respectively).

The test system of data set [3] is amyloid β peptide1-42 (Aβ42). Kind of data set: Degradation of Aβ1-42 in guinea pig plasma by neprilysin. It is filed as biochemical. Particulars: 5 μg/ml neprilysin, 0-360 minutes at 37° C. The method, then: as §1

B1: Neprilysin: Aβ-degrading Zn-metallopeptidase; soluble extracellular domain (SEQ ID NO 1-4), commercial (R&D Systems) or produced in-house (protein, UniProt P08473 52-750, looked up)
extracellular domain: YDDGICKSSDCIKSAARLIQNMDATTEPCTDFFKYACGGWLKRNVIPETSSRYGNFDILRDELEVVLKDVLQEPKTEDIVAVQKAKALYRSCINESAIDSRGGEPLLKLLPDIYGWPVATENWEQKYGASWTAEKAIAQLNSKYGKKVLINLFVGTDDKNSVNHVIHIDQPRLGLPSRDYYECTGIYKEACTAYVDFMISVARLIRQEERLPIDENQLALEMNKVMELEKEIANATAKPEDRNDPMLLYNKMTLAQIQNNFSLEINGKPFSWLNFTNEIMSTVNISITNEEDVVVYAPEYLTKLKPILTKYSARDLQNLMSWRFIMDLVSSLSRTYKESRNAFRKALYGTTSETATWRRCANYVNGNMENAVGRLYVEAAFAGESKHVVEDLIAQIREVFIQTLDDLTWMDAETKKRAEEKALAIKERIGYPDDIVSNDNKLNNEYLELNYKEDEYFENIIQNLKFSQSKQLKKLREKVDKDEWISGAAVVNAFYSSGRNQIVFPAGILQPPFFSAQQSNSLNYGGIGMVIGHEITHGFDDNGRNFNKDGDLVDWWTQQSASNFKEQSQCMVYQYGNFSWDLAGGQHLNGINTLGENIADNGGLGQAYRAYQNYIKKNGEEKLLPGLDLNHKQLFFLNFAQVWCGTYRPEYAVNSIKTDVHSPGNFRIIGTLQNSAEFSEAFHCRKNSYMNPEKKCRVW
modifications: extracellular domain
As for B1, the “Degradation of Aβ1-40 versus dose” value in data set [1] (0-20 μg/ml neprilysin, 210 minutes at 37° C.) is on record as “dose dependent manner”. In data set [1] (5 μg/ml neprilysin, 0-360 minutes at 37° C.), the “Degradation of Aβ1-40 over time” value is “time-dependent manner”. In the data set with Ab1-42, the “Sites at which amyloid β peptide is cleaved in vitro” value is “five sites”. Further, the “Amyloid β1-40 peptide degraded” value with amyloid β1-40 peptide amounted to 88%. For the same molecule, the “Activity of purified protein with versus without added zinc” value in data set [2] is on record as “no difference in activity”. Besides, the “Concentration of amyloid β peptide in the other compartment” value with amyloid β peptide is listed as “decreased”. The “Degradation of Aβ1-42 over time” value in data set [3] is listed as “time-dependent manner”.
